Data: patent US20230212266A1 (FRED HUTCHINSON CANCER CENTER, published 2023)
Substitutions are numbered along the chain they refer to.

Experiments:
[1] = target: T1, SARS-CoV-2 receptor binding domain (RBD) (SARS-CoV-2, UniProt P0DTC2 319-591); test: BLI: mAb on anti-human Fc probe, dipped in the antigen
[2] = target: T1, SARS-CoV-2 receptor binding domain (RBD); test: BLI, mAb on anti-human Fc probe, antigen in solution
[3] = target: T1, SARS-CoV-2 receptor binding domain (RBD); test: as above; remark: listed apart in the source
[4] = target: T1, SARS-CoV-2 receptor binding domain (RBD); test: BLI: mAb on anti-human Fc probe, dipped in the antigen; remark: listed apart in the source
[5] = target: T1, SARS-CoV-2 receptor binding domain (RBD); test: BLI, mAb on anti-human Fc probe, antigen in solution; remark: listed apart in the source
[6] = target: T1, SARS-CoV-2 receptor binding domain (RBD); test: as above; remark: listed apart in the source
[7] = target: T1, SARS-CoV-2 receptor binding domain (RBD); test: as above; remark: listed apart in the source
[8] = target: T1, SARS-CoV-2 receptor binding domain (RBD); test: as above; remark: listed apart in the source
[9] = target: T1, SARS-CoV-2 receptor binding domain (RBD); test: BLI: mAb on anti-human Fc probe, dipped in the antigen; remark: listed apart in the source
[10] = target: T1, SARS-CoV-2 receptor binding domain (RBD); test: BLI, mAb on anti-human Fc probe, antigen in solution; remark: listed apart in the source
[11] = target: T1, SARS-CoV-2 receptor binding domain (RBD); test: as above; remark: listed apart in the source
[12] = target: T1, SARS-CoV-2 receptor binding domain (RBD); test: BLI: mAb on anti-human Fc probe, dipped in the antigen; remark: listed apart in the source
[13] = target: T1, SARS-CoV-2 receptor binding domain (RBD); test: BLI, mAb on anti-human Fc probe, antigen in solution; remark: listed apart in the source
[14] = target: T1, SARS-CoV-2 receptor binding domain (RBD); test: as above; remark: listed apart in the source
[15] = target: T1, SARS-CoV-2 receptor binding domain (RBD); test: as above; remark: listed apart in the source

B1: CV2-50 (antibody, V domains shown)
VH: QVQLVESGGGVVQPGRSLRLSCAASGFTFSSYGMHWVRQAPGKGLEWVAVISYDGSNQYYADSVKGRFTISRDNSKNTLYLQMNSLRAEDTAVYYCAKDPTIFGVVLQIPRFDYWGQGTLVTVSS
VL: EIVLTQSPATLSLSPGERATLSCRASQSVSSYLAWYQQKPGQAPRLLIYDASNRATGIPARFSGSGSGTDFTLTISSLEPEDFAVYYCQQRSNWPPTFGQGTKLEIK
B1: no binding [1].

B2: CV2-30 (antibody, V domains shown)
VH: QVQLVQSGAEVKKPGSSVKVSCKASGGTFSSYAITWVRQAPGQGLEWMGGIIPIFGTANYAQKFQGRVTITADESTNTAYMELSSLTSEDTAVYYCAKIGDYDSSGYYFDYWAQGTLVTVSS
VL: EIVLTQSPATLSLSPGERATLSCRASQSVSSFLAWYQQKPGQAPRLLIYDASNRATGIPARFSGSGSGTDFTLTISSLEPEDFAVYYCQQRSNWPPSITFGQGTRLEIK
notes: expressed as IgG
B2: no binding [2].

B3: CV2-33 (antibody, V domains shown)
VH: QVQLVQSGAEVKKPGSSVKVSCKASGGTFSSYAISWVRQAPGQGLEWMGGIIPIFGTANYAQKFQGRVTITADESTSTAYMELSSLRSEDTAVYYCARISSYDSSGYSMDVWGQGTTVTVSS
VL: B2 VL with F32Y, S97R, I98V, Q102P, R105K, L106V, E107D
notes: expressed as IgG
B3: no binding [3].

B4: CV2-47 (antibody, V domains shown)
VH: QVQLVQSGAEVKKPGSSVKVSCKTSGGTFSNYAISWVRQAPGQGLEWMGGIIPIFGTANYAQKFQGRVTFTADESTSTAYMELSSLRSEDTAVFYCVSRIAAAADFDYWGQGTLVTVSS
VL: B2 VL with V29I, F32Y, S97L, I98L, Q102G, R105K, L106V
B4: no binding [4].

B5: CV2-43 (antibody, V domains shown)
VH: B3 VH with I99A, S100Y, M109P, V111Y, T117L
VL: B2 VL with F32Y, S97K, I98L, Q102G, R105K, L106V
notes: expressed as IgG
B5: no binding [5].

B6: CV2-42 (antibody, V domains shown)
VH: QVQLVQSGAEVKKPGASVKVSCKASGYTFTSYGISWVRQAPGQGLEWMGWISAYNGNTNYAQKLQGRVTMTTDTSTSTAYMELRSLRSDDTAVYYCARDRRGSGWSWDYYYYGMDVWGQGTTVTVSS
VL: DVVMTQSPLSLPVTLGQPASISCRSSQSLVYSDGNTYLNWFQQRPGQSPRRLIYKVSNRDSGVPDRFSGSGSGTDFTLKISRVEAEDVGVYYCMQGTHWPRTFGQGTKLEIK
notes: expressed as IgG
B6: no binding [6].

B7: CV2-37 (antibody, V domains shown)
VH: QVQLVQSGAEVKKPGASVKVSCRASGYTFTNFGISWVRQAPGLGLEWMGWISTYNGNTNYAQKLQGRVTMTTDTSTSTAYMELRSLRSDDTAVYYCARASGPYLLGLYWGQGTLVTVSS
VL: QSVLTQPPSVSGAPGQRVTISCTGSSSNIGAGYDVHWYQQLPGTAPKLLIYGNSNRPSGVPDRFSGSKSGTSASLAITGLQAEDEADYYCQSYDSSLSDVVFGGGTKLTVL
notes: expressed as IgG
B7: no binding [7].

B8: CV2-35 (antibody, V domains shown)
VH: EVQLVESGGGLVQPGGSLRLSCAASGFTFSNCWMSWVRQAPGKGLEWVANIKQDGSEKYYVDSVKGRFTISRDNAKNSLYLQMNSLRAEDTAVYYCARMGNTAWYFDLWGRGTLVTVSS
VL: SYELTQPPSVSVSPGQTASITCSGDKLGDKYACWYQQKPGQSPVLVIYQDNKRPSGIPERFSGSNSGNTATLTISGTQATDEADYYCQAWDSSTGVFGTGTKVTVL
notes: expressed as IgG
B8: no binding [8].

B9: CV2-44 (antibody, V domains shown)
VH: QVQLVQSGAEVKKPGASVKVSCKASGYTFISYGISWVRQAPGQGLEWMGWISGYNGNTNYAQKFQGRVTMTTDTSTSTAYMELRSLRSDDTAVYYCARVRIFGVVIIVDTAMVLDYWGQGTLVTVSS
VL: QSVLTQPPSVSAAPGQKVTISCSGSSSNIGNNYVSWYQQLPGTAPKLLIYENNKRPSGIPDRFSGSKSGTSATLGITGLQTGDEAHYYCGTWDSSLSAGVFGGGTKLTVL
B9: no binding [9].

B10: CV2-38 (antibody, V domains shown)
VH: QVQLVQSGAEVKKPGSSVKVSCKASGGTFSSYAISWVRQAPGQGLEWMGGIIPIFGTANYAQKFQGRVTITADESTSTAYMELSSLRSEDTAVYYCASARFITMVRGVINIYYYGMDVWGQGTTVTVSS
VL: QSALTQPASVSGSPGQSITISCTGTSSDVGGYNYVSWYQQHPGKAPKLMIYEVSNRPSGVSNRFSGSKSGNTASLTISGLQAEDEADYYCSSYTSSSTLLFGGGTKLRSC
notes: expressed as IgG
B10: no binding [10].

B11: CV2-39 (antibody, V domains shown)
VH: EVQLVESGGGLVQPGGSLRLSCSASGFTFSSYAMHWVRQAPGKGLEYVSGISSNGGSTYYADSVKGRITISRDNSKKTLYLQMSSLRAEDTAVYYCVKSSSRGYYWGQGTLVTVSS
VL: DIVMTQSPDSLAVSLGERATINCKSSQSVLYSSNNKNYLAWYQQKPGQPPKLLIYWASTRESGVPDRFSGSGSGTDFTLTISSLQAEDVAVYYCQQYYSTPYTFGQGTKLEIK
notes: expressed as IgG
B11: no binding [11].

B12: CV2-45 (antibody, V domains shown)
VH: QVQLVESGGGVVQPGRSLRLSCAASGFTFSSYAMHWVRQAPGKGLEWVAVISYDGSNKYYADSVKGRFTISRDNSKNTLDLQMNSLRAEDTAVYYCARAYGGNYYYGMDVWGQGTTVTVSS
VL: AIQLTQSPSSLSASVGDRVTITCRASQGISSALAWYQQKPGKAPKLLIYDASSLESGVPSRFSGSGSGTDFTLTISSLQPEDFATYYCQQFNNYPLTFGGGTKVEIK
B12: no binding [12].

B13: CV2-32 (antibody, V domains shown)
VH: EVQLVESGGGLVQPGRSLRLSCTASGFTFGDYAMSWFRQAPGKGLEWVGFIRSKAYGGTTEYAASVKGRFTISRDDSKSIAYLQMNSLKTEDTAVYYCTMVWQQLHDAFDIWGQGTMVTVSS
VL: SYELTQPPSVSVSPGQTARITCSGDALPKQYAYWYQQKPGQAPVLVIYKDSERPSGIPERFSGSSSGTTVTLTISGVQAEDEADYYCQSADSSGTYSWVFGGGTKLTVL
notes: expressed as IgG
B13: no binding [13].

B14: CV2-34 (antibody, V domains shown)
VH: QVQLVESGGGVVQPGRSLRLSCAASRFTFSTYAMHWVRQAPGKGLEWVTVISYDGDNKYYADSVKGRFTISRDNSKNTLYLQMNSLRTEDTAVYYCTRAGSGSYLSYFDYWGQGTLVTVSS
VL: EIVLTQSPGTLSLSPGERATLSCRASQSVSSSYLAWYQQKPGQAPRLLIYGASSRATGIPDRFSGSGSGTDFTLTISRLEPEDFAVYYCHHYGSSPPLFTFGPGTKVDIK
notes: expressed as IgG
B14: no binding [14].

B15: CV2-40 (antibody, V domains shown)
VH: QVQLVESGGGLVKPGGSLRLSCAASGFTFSDYYMSWIRQAPGKGLEWVSYISSRSSYTNYADSVKGRFTISRDNAKNSLYLQMNSLRAEDTAVYYCARGYDSSGYHYSLWGQGTLVTVSS
VL: QSALTQPASVSGSPGQSITISCTGTSSDVGGYNYVSWYQQHPGKAPKLMIYEVSNRPSGVSNRFSGSKSGNTASLTISGLQAEDEADYYCSSYTNSRTLDVVFGGGTKLTVL
notes: expressed as IgG
B15: no binding [15].
